The text below walks through data of patent publication US20250277046A1 (JULIUS MAXIMILIANS UNIVERSIT T W RZBURG, published 2025).

To fix the notation:
B1: 18D1-(2) (antibody)
heavy: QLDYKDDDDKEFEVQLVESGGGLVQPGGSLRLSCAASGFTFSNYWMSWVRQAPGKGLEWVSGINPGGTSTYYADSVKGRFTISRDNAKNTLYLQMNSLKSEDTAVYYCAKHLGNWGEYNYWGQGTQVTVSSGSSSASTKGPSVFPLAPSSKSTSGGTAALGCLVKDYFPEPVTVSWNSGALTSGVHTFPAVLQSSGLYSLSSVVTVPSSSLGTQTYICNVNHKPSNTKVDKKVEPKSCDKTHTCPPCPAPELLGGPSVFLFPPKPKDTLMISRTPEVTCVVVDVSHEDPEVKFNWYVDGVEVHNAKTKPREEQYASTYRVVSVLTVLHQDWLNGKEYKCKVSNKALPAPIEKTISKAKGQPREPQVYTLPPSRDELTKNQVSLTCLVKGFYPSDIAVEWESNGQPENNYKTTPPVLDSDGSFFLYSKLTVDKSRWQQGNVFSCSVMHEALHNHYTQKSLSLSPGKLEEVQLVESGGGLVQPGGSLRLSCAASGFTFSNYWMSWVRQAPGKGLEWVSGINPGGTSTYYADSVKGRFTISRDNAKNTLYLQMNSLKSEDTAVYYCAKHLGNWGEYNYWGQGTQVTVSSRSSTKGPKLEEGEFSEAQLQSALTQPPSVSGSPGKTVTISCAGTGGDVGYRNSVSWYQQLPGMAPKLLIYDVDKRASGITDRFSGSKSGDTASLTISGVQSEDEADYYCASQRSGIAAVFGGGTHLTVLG
light: QLDYKDDDDKEFQSALTQPPSVSGSPGKTVTISCAGTGGDVGYRNSVSWYQQLPGMAPKLLIYDVDKRASGITDRFSGSKSGDTASLTISGVQSEDEADYYCASQRSGIAAVFGGGTHLTVLGGSEIKRTVAAPSVFIFPPSDEQLKSGTASVVCLLNNFYPREAKVQWKVDNALQSGNSQESVTEQDSKDSTYSLSSTLTLSKADYEKHKVYACEVTHQGLSSPVTKSFNRGEC
B2: 18D1-(7) (antibody)
heavy: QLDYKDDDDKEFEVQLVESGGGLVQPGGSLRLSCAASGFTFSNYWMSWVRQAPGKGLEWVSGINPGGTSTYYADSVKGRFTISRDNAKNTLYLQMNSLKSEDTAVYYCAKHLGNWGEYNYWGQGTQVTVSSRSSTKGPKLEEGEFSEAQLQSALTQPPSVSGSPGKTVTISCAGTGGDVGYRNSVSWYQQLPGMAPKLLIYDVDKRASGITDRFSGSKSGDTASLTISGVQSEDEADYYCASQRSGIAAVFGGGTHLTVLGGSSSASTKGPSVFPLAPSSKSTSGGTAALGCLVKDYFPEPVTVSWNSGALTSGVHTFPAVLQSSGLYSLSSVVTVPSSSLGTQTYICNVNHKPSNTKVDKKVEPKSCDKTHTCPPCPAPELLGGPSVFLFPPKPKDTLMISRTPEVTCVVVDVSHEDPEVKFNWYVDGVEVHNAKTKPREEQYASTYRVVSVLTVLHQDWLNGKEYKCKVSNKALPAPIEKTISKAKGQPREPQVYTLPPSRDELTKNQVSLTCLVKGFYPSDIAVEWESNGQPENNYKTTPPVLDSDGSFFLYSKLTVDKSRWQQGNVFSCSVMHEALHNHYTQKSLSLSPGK
light: QLDYKDDDDKEFEVQLVESGGGLVQPGGSLRLSCAASGFTFSNYWMSWVRQAPGKGLEWVSGINPGGTSTYYADSVKGRFTISRDNAKNTLYLQMNSLKSEDTAVYYCAKHLGNWGEYNYWGQGTQVTVSSRSSTKGPKLEEGEFSEAQLQSALTQPPSVSGSPGKTVTISCAGTGGDVGYRNSVSWYQQLPGMAPKLLIYDVDKRASGITDRFSGSKSGDTASLTISGVQSEDEADYYCASQRSGIAAVFGGGTHLTVLGGSEIKRTVAAPSVFIFPPSDEQLKSGTASVVCLLNNFYPREAKVQWKVDNALQSGNSQESVTEQDSKDSTYSLSSTLTLSKADYEKHKVYACEVTHQGLSSPVTKSFNRGECLEEVQLVESGGGLVQPGGSLRLSCAASGFTFSNYWMSWVRQAPGKGLEWVSGINPGGTSTYYADSVKGRFTISRDNAKNTLYLQMNSLKSEDTAVYYCAKHLGNWGEYNYWGQGTQVTVSSRSSTKGPKLEEGEFSEAQLQSALTQPPSVSGSPGKTVTISCAGTGGDVGYRNSVSWYQQLPGMAPKLLIYDVDKRASGITDRFSGSKSGDTASLTISGVQSEDEADYYCASQRSGIAAVFGGGTHLTVLG
B3: 18D1-(8) (antibody)
heavy: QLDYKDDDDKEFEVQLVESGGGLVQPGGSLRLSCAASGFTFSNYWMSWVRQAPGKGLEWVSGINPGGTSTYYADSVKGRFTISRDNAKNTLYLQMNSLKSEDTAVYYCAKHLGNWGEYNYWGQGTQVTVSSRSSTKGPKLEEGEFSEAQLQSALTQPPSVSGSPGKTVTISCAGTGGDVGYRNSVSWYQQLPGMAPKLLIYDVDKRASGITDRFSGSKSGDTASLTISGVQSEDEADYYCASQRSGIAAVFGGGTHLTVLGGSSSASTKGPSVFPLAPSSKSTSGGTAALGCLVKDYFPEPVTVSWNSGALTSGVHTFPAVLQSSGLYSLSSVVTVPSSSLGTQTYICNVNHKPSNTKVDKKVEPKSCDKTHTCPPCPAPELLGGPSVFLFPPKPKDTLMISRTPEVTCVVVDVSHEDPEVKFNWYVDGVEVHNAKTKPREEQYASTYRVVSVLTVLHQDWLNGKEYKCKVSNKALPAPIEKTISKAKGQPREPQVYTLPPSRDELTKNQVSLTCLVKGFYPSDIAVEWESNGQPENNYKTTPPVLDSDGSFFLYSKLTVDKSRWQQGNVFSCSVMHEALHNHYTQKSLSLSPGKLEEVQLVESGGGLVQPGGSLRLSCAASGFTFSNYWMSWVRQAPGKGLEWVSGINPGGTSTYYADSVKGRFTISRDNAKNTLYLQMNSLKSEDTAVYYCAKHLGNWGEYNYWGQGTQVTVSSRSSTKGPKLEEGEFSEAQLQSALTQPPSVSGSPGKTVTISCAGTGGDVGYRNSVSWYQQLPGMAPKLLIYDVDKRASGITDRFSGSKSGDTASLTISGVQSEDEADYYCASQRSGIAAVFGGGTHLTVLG
light: B2 light
B4: 18D1-(3) (antibody)
heavy: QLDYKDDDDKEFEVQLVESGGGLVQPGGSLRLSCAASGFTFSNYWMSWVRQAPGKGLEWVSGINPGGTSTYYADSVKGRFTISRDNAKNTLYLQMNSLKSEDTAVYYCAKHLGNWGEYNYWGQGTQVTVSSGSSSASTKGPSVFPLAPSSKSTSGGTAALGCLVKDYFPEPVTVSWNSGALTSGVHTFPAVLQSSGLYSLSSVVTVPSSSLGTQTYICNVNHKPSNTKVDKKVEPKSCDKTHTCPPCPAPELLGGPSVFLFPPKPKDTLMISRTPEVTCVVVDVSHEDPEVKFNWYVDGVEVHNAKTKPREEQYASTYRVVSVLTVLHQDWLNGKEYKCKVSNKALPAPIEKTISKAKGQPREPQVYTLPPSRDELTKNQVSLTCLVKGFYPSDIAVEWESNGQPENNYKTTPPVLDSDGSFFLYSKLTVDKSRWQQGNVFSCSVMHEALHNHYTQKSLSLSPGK
light: QLDYKDDDDKEFQSALTQPPSVSGSPGKTVTISCAGTGGDVGYRNSVSWYQQLPGMAPKLLIYDVDKRASGITDRFSGSKSGDTASLTISGVQSEDEADYYCASQRSGIAAVFGGGTHLTVLGGSEIKRTVAAPSVFIFPPSDEQLKSGTASVVCLLNNFYPREAKVQWKVDNALQSGNSQESVTEQDSKDSTYSLSSTLTLSKADYEKHKVYACEVTHQGLSSPVTKSFNRGECLEEVQLVESGGGLVQPGGSLRLSCAASGFTFSNYWMSWVRQAPGKGLEWVSGINPGGTSTYYADSVKGRFTISRDNAKNTLYLQMNSLKSEDTAVYYCAKHLGNWGEYNYWGQGTQVTVSSRSSTKGPKLEEGEFSEAQLQSALTQPPSVSGSPGKTVTISCAGTGGDVGYRNSVSWYQQLPGMAPKLLIYDVDKRASGITDRFSGSKSGDTASLTISGVQSEDEADYYCASQRSGIAAVFGGGTHLTVLG
B5: 18D1-(4) (antibody)
heavy: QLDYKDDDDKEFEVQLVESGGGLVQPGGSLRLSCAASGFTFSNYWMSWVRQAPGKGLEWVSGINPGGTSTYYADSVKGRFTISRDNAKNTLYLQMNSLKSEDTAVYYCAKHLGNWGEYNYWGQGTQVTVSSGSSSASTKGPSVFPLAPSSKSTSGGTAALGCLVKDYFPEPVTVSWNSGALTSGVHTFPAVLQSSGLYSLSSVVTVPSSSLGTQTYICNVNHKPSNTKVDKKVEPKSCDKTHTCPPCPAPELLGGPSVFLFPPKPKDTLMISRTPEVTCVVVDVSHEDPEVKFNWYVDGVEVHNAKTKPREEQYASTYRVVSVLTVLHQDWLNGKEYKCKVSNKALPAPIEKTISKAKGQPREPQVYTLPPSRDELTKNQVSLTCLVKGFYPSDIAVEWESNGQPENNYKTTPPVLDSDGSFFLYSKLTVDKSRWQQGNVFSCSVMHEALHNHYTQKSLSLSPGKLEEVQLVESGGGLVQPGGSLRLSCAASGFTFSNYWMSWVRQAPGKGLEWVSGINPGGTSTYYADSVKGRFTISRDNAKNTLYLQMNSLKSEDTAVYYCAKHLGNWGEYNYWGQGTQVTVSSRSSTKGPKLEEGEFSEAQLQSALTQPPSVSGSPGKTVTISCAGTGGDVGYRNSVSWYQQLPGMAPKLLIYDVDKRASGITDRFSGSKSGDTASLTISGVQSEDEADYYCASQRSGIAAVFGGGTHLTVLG
light: B4 light
B6: 18D1-(5) (antibody)
heavy: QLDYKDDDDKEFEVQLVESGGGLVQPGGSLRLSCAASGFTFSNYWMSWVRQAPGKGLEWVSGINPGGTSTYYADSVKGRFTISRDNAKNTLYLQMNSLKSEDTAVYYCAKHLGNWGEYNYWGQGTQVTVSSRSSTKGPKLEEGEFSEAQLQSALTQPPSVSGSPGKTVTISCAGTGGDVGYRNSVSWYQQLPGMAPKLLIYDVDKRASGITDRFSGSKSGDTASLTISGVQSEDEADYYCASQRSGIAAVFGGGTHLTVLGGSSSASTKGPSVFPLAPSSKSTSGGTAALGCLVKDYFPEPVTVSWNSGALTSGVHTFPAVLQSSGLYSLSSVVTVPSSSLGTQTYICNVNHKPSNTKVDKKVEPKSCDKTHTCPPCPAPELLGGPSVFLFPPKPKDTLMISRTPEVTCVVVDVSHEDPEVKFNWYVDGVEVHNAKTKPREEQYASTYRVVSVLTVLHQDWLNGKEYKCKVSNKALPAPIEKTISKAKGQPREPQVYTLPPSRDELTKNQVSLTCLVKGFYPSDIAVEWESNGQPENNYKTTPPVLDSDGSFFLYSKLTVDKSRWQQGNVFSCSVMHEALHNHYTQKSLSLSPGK
light: QLDYKDDDDKEFEVQLVESGGGLVQPGGSLRLSCAASGFTFSNYWMSWVRQAPGKGLEWVSGINPGGTSTYYADSVKGRFTISRDNAKNTLYLQMNSLKSEDTAVYYCAKHLGNWGEYNYWGQGTQVTVSSRSSTKGPKLEEGEFSEAQLQSALTQPPSVSGSPGKTVTISCAGTGGDVGYRNSVSWYQQLPGMAPKLLIYDVDKRASGITDRFSGSKSGDTASLTISGVQSEDEADYYCASQRSGIAAVFGGGTHLTVLGGSEIKRTVAAPSVFIFPPSDEQLKSGTASVVCLLNNFYPREAKVQWKVDNALQSGNSQESVTEQDSKDSTYSLSSTLTLSKADYEKHKVYACEVTHQGLSSPVTKSFNRGEC
B7: 18D1-(6) (antibody)
heavy: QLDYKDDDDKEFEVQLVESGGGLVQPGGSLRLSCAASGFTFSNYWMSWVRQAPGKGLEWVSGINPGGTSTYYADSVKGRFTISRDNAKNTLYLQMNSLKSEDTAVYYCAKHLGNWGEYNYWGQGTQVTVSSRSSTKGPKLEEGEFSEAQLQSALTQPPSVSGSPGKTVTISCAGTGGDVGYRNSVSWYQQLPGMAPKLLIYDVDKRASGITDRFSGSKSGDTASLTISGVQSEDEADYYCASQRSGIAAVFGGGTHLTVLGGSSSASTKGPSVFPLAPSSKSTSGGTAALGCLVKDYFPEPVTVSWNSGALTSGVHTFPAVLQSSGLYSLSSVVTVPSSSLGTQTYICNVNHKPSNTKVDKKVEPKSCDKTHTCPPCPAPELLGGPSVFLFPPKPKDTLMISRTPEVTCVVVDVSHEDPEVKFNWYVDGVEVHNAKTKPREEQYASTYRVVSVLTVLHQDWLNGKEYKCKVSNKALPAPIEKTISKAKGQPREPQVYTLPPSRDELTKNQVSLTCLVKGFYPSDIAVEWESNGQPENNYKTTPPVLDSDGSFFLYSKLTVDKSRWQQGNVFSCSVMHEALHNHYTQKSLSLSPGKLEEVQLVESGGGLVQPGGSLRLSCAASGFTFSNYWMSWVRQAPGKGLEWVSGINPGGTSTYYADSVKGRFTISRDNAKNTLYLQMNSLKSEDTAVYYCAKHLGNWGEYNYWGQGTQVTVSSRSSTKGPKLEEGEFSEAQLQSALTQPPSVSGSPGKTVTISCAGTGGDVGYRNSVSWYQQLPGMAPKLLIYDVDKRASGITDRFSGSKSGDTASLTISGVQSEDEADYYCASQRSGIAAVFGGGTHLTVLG
light: B6 light

The assay has as its target T1, Fibroblast growth factor (FGF)-inducible 14 (Fn14) (UniProt Q9NP84 28-129, limits assumed).
T1 sequence (looked up): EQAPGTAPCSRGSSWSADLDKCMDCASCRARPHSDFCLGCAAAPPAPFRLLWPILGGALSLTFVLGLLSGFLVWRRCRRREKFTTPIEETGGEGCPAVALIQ
The experiment in a line: cell-based or functional assay.
As to B1, the “enhancement of TNF-induced toxicity (HeLa-RIPK3-FADDKO cells, 1 ng/ml TNF), ED50” value (“enhancement of TNF-induced toxicity” for short) was under 0.1 µg/mL and the “p100 processing (western blot), starting concentration” value (from here on “p100 processing (western blot)”) is about 20 ng/mL.

Regarding B2, the “enhancement of TNF-induced toxicity” value was under 0.1 µg/mL and the “p100 processing (western blot)” value was about 200 ng/mL.

Consider B3, for which the “enhancement of TNF-induced toxicity” value is under 0.1 µg/mL and the “p100 processing (western blot)” value is about 200 ng/mL.

As to B4, the “enhancement of TNF-induced toxicity” value is under 0.1 µg/mL and the “p100 processing (western blot)” value was about 20 ng/mL.

As to B5, the “enhancement of TNF-induced toxicity” value was under 0.1 µg/mL and the “p100 processing (western blot)” value is about 20 ng/mL.

As for B6, the “enhancement of TNF-induced toxicity” value was under 0.1 µg/mL and the “p100 processing (western blot)” value was about 200 ng/mL.

Regarding B7, the “enhancement of TNF-induced toxicity” value was under 0.1 µg/mL and the “p100 processing (western blot)” value is about 200 ng/mL.
